According to patent US20240010735A1 (EISAI R AND D MANAGEMENT, published 2024):

Key:
Test in all cases: ELISA: Fc-His proteins (1 nM) captured on anti-6-His antibody, antibody A 10 µg/mL with human IgG 100 µg/mL, HRP anti-mouse IgG, OD450 as % of mouse EphA4-Fc-His
[1] = molecular target: T1, mouse EphA7 extracellular region-Fc-His protein (mouse; human, UniProt Q61772 28-555)
T1 construct: extracellular domain; not shown: Fc region of human IgG1; histidine tag
T1 sequence (looked up): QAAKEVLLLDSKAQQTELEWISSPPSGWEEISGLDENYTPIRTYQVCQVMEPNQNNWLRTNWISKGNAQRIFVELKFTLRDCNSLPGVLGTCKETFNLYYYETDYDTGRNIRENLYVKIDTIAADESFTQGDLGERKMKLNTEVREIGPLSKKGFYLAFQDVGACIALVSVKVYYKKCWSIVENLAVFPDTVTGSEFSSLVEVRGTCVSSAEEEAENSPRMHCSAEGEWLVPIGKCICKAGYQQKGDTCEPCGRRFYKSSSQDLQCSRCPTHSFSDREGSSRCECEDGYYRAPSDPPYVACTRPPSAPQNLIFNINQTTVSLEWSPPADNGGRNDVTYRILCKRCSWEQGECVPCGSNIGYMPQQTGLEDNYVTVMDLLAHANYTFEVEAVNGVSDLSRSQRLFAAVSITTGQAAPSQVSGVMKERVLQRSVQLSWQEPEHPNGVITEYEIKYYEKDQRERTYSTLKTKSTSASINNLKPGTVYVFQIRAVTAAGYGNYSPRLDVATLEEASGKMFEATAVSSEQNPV
Protocol: (§1) Rabbit anti-6-His antibodies (Bethyl Laboratories) were coated onto the wells of a 96-well plate (Nunc). After incubating at 4° C. overnight, the wells were blocked at room temperature for 1 hour by 1% Block Ace (DS Pharma Biomedical). After washing 3 times with 0.05% Tween 20/PBS (Thermo […]), each Eph receptor of mouse extracellular region-Fc-His protein (final concentration 1 nM) was seeded into each well, and incubated at room temperature for 1 hour. After washing 3 times, human IgG solution (100 μg/mL, Sigma) and antibody A (10 μg/mL) were supplemented to the wells, and incubated at room temperature for 1 hour. Horseradish peroxidase-labeled donkey anti-mouse IgG antibody (Jackson ImmunoResearch Laboratories) was added, and incubated at room temperature for 1 hour. After washing 3 times, TMBZ (3,3′,5,5′-tetramethylbenzidine, Sigma) solution was added to the wells, and upon confirmation of modest coloring, an equal amount of quenching solution (1 N H₂SO₄, Wako Pure Chemicals) was added to the wells, and absorbance at 450 nm was read by a microplate reader (PerkinElmer).

[2] = molecular target: T2, mouse EphB1 extracellular region-Fc-His protein (mouse; human, UniProt Q8CBF3 18-540)
T2 construct: extracellular domain; not shown: Fc region of human IgG1; histidine tag
T2 sequence (looked up): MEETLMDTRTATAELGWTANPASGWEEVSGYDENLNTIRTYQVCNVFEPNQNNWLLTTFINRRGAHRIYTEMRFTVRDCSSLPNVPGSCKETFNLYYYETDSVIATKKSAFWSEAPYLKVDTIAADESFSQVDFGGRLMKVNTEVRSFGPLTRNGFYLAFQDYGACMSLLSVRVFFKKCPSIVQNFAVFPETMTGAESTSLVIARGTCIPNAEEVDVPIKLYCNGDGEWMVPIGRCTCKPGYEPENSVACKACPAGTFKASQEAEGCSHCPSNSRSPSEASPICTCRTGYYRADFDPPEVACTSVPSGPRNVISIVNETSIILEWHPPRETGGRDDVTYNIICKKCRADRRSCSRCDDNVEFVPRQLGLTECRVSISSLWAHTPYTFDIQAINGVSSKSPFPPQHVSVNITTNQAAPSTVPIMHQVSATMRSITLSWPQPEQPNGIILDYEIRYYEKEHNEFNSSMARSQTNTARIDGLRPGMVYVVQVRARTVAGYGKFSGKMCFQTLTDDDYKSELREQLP
Protocol: as §1

[3] = molecular target: T3, mouse EphB2 extracellular region-Fc-His protein (mouse; human, UniProt P54763 19-543)
T3 construct: extracellular domain; not shown: Fc region of human IgG1; histidine tag
T3 sequence (looked up): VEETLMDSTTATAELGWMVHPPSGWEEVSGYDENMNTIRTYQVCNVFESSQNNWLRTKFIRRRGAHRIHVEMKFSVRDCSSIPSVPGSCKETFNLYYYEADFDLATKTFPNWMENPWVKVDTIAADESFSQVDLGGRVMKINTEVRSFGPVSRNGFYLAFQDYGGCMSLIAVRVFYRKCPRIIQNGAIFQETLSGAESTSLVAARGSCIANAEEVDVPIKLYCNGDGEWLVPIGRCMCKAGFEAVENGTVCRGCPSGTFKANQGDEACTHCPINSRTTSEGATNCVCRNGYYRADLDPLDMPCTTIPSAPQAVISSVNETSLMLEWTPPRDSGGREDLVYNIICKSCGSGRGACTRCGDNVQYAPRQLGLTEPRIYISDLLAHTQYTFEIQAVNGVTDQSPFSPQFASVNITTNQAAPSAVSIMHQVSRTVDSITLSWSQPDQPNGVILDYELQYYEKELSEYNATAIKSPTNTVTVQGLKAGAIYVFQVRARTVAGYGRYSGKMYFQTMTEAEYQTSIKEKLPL
Protocol: as §1

Measured: binding result

B1: mouse anti-EphA4 monoclonal antibody (antibody A) (antibody, mouse IgG1, kappa, V domains shown)
VH: QVQLKQSGPSLVQPSQSLSITCTVSGFSLTRYGVHWVRQSPGKGLEWLGVIWRGGSTDYNAAFMSRLSITKDNSKSQVFFKMNSLQADDTAIYYCAKESLFGVYYDYGYYSMDYWGQGTSVTVSS
VL: DIQMTQSPSSLSASLGERVSLTCRASQEISGYLSWLQQKPDGTIKRLIYAASTLDSGVPKRFSGSRSGSDYSLTISSLESEDFADYYCLQYASYPLTFGAGTKLELKR
notes: purified from hybridoma supernatant
no binding (tested: 10 µg/mL): all assays above
